Residue numbers refer to the chain shown, from its start. Numbers in names are those of the source. Values belong to the binder of their own block, whether it stands above or below them.
Legend:
[1] = target: T1, Human CD137 ECD (human); assay: single mutant vs template dBBDu183H
T1 construct: also called 4-1BB

[2] = target: T2, CD3 epsilon homodimer protein (UniProt P07766 23-126); assay: SPR Biacore T200, CD3e homodimer on chip, vs unaltered GLS3000 antibody
T2 construct: also called CD3 (CD3 epsilon)
T2 sequence (P07766 23-126): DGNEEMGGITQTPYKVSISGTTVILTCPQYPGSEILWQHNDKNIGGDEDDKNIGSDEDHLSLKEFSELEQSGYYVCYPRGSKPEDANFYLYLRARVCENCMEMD

T1 sequence (chain, as listed by the source limits assumed): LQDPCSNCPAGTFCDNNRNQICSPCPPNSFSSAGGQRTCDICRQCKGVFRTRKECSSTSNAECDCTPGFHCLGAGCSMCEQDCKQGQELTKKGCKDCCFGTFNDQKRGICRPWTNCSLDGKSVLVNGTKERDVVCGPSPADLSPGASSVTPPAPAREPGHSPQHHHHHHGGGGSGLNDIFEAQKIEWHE

B1: H183/L072 VH Y58L (antibody, name in Kabat numbering, V domains shown)
VH: QVQLVESGGGLVQPGRSLRLSCAASGFTFSNAWMHWVRQAPGKGLEWVAQIKDKGNAYAALYAPSVKGRFTISRDDSKNSIYLQMNSLKTEDTAVYYCHYVHYASASTVLPAFGVDAWGQGTTVTVSS
VL: DIVMTQSPLSLPVTPGEPASISCQASQELVHMNRNTYLHWYQQKPGQAPRLLIYKVSNRFPGVPDRFSGSGSGTDFTLKISRVEAEDVGVYYCAQGTSVPFTFGQGTKLEIK
fold change of affinity [1]: 0.4 fold

B2: GLS3000 H27dA (antibody, name in Kabat numbering, V domains shown)
VH: QVQLVESGGGVVQPGRSLRLSCAASGFTFSNAWMHWVRQAPGKGLEWVAQIKAKSNNYATYYAESVKGRFTISRDDSKNSLYLQMNSLKTEDTAVYYCRYVHYGAYYGVDAWGQGTTVTVSS
VL: B1 VL with Q24R, A25S, E28S, H31A, M32S, P61S, A94G, S98Q, F101Y
notes: one-arm IgG as m2
ratio of amounts bound (Z=Y/X) [2]: 0.48

B7: H183/L072 VH Y59K (antibody, name in Kabat numbering, V domains shown)
VH: B1 VH with L61Y, Y62K
VL: B1 VL
fold change of affinity [1]: 1 fold

B9: H183/L072 VH Y58P (antibody, name in Kabat numbering, V domains shown)
VH: B1 VH with L61P
VL: B1 VL
fold change of affinity [1]: 0.2 fold

B10: H183/L072 VH Y59A (antibody, name in Kabat numbering, V domains shown)
VH: B1 VH with L61Y, Y62A
VL: B1 VL
fold change of affinity [1]: 0.7 fold

B11: H183/L072 VH Y59E (antibody, name in Kabat numbering, V domains shown)
VH: B1 VH with L61Y, Y62E
VL: B1 VL
fold change of affinity [1]: 0.7 fold

B14: H183/L072 VH Y59D (antibody, name in Kabat numbering, V domains shown)
VH: B1 VH with L61Y, Y62D
VL: B1 VL
fold change of affinity [1]: 0.8 fold

B15: H183/L072 VH Y59H (antibody, name in Kabat numbering, V domains shown)
VH: B1 VH with L61Y, Y62H
VL: B1 VL
fold change of affinity [1]: 0.8 fold

B16: H183/L072 VH Y58S (antibody, name in Kabat numbering, V domains shown)
VH: B1 VH with L61S
VL: B1 VL
fold change of affinity [1]: 0.3 fold

B18: H183/L072 VH Y58R (antibody, name in Kabat numbering, V domains shown)
VH: B1 VH with L61R
VL: B1 VL
fold change of affinity [1]: 0.4 fold

B20: H183/L072 VH Y59I (antibody, name in Kabat numbering, V domains shown)
VH: B1 VH with L61Y, Y62I
VL: B1 VL
fold change of affinity [1]: 0.7 fold

B21: H183/L072 VH Y58W (antibody, name in Kabat numbering, V domains shown)
VH: B1 VH with L61W
VL: B1 VL
fold change of affinity [1]: 0.2 fold

B23: H183/L072 VH Y58T (antibody, name in Kabat numbering, V domains shown)
VH: B1 VH with L61T
VL: B1 VL
fold change of affinity [1]: 0.3 fold

B24: H183/L072 VH Y59L (antibody, name in Kabat numbering, V domains shown)
VH: B1 VH with L61Y, Y62L
VL: B1 VL
fold change of affinity [1]: 1.1 fold

B26: H183/L072 VH Y58N (antibody, name in Kabat numbering, V domains shown)
VH: B1 VH with L61N
VL: B1 VL
fold change of affinity [1]: 0.3 fold

B38: H183/L072 VH Y59G (antibody, name in Kabat numbering, V domains shown)
VH: B1 VH with L61Y, Y62G
VL: B1 VL
fold change of affinity [1]: 0.9 fold

B40: H183/L072 VH Y58V (antibody, name in Kabat numbering, V domains shown)
VH: B1 VH with L61V
VL: B1 VL
fold change of affinity [1]: 0.2 fold

B41: H183/L072 VH Y59F (antibody, name in Kabat numbering, V domains shown)
VH: B1 VH with L61Y, Y62F
VL: B1 VL
fold change of affinity [1]: 1.5 fold

B43: H183/L072 VH Y58M (antibody, name in Kabat numbering, V domains shown)
VH: B1 VH with L61M
VL: B1 VL
fold change of affinity [1]: 0.6 fold

B44: H183/L072 VH Y58Q (antibody, name in Kabat numbering, V domains shown)
VH: B1 VH with L61Q
VL: B1 VL
fold change of affinity [1]: 0.4 fold

B45: H183/L072 VH Y59M (antibody, name in Kabat numbering, V domains shown)
VH: B1 VH with L61Y, Y62M
VL: B1 VL
fold change of affinity [1]: 1.1 fold

Further lines, results first:

fold change of affinity [1]: 0.8 fold
B3: H183/L072 VH Y59Q (antibody, name in Kabat numbering, V domains shown)
VH: B1 VH with L61Y, Y62Q
VL: B1 VL

fold change of affinity [1]: 0 fold
B4: H183/L072 VH Y94P (antibody, name in Kabat numbering, V domains shown)
VH: B1 VH with L61Y, Y100P
VL: B1 VL

fold change of affinity [1]: 0 fold
B5: H183/L072 VH Y97I (antibody, name in Kabat numbering, V domains shown)
VH: B1 VH with L61Y, Y103I
VL: B1 VL

ratio of amounts bound (Z=Y/X) [2]: 1.31
B6: GLS3000 F55G (antibody, name in Kabat numbering, V domains shown)
VH: B2 VH
VL: B1 VL with Q24R, A25S, E28S, M32S, F60G, P61S, A94G, S98Q, F101Y
notes: one-arm IgG as m2

ratio of amounts bound (Z=Y/X) [2]: 0.82
B8: GLS3000 F55I (antibody, name in Kabat numbering, V domains shown)
VH: B2 VH
VL: B1 VL with Q24R, A25S, E28S, M32S, F60I, P61S, A94G, S98Q, F101Y
notes: one-arm IgG as m2

fold change of affinity [1]: 0 fold
B12: H183/L072 VH Y97M (antibody, name in Kabat numbering, V domains shown)
VH: B1 VH with L61Y, Y103M
VL: B1 VL

ratio of amounts bound (Z=Y/X) [2]: 1.13
B13: GLS3000 F55A (antibody, name in Kabat numbering, V domains shown)
VH: B2 VH
VL: B1 VL with Q24R, A25S, E28S, M32S, F60A, P61S, A94G, S98Q, F101Y
notes: one-arm IgG as m2

fold change of affinity [1]: 1.5 fold
B17: H183/L072 VH Y59W (antibody, name in Kabat numbering, V domains shown)
VH: B1 VH with L61Y, Y62W
VL: B1 VL

ratio of amounts bound (Z=Y/X) [2]: 0.65
B19: GLS3000 F55D (antibody, name in Kabat numbering, V domains shown)
VH: B2 VH
VL: B1 VL with Q24R, A25S, E28S, M32S, F60D, P61S, A94G, S98Q, F101Y
notes: one-arm IgG as m2

fold change of affinity [1]: 0.8 fold
B22: H183/L072 VH Y59S (antibody, name in Kabat numbering, V domains shown)
VH: B1 VH with L61Y, Y62S
VL: B1 VL

fold change of affinity [1]: 3.2 fold
B25: H183/L072 VH Y94M (antibody, name in Kabat numbering, V domains shown)
VH: B1 VH with L61Y, Y100M
VL: B1 VL

ratio of amounts bound (Z=Y/X) [2]: 0.72
B27: GLS3000 F55E (antibody, name in Kabat numbering, V domains shown)
VH: B2 VH
VL: B1 VL with Q24R, A25S, E28S, M32S, F60E, P61S, A94G, S98Q, F101Y
notes: one-arm IgG as m2

fold change of affinity [1]: 0.8 fold
B28: H183/L072 VH Y59T (antibody, name in Kabat numbering, V domains shown)
VH: B1 VH with L61Y, Y62T
VL: B1 VL

fold change of affinity [1]: 0.8 fold
B29: H183/L072 VH Y59V (antibody, name in Kabat numbering, V domains shown)
VH: B1 VH with L61Y, Y62V
VL: B1 VL

fold change of affinity [1]: 0 fold
B30: H183/L072 VH Y97A (antibody, name in Kabat numbering, V domains shown)
VH: B1 VH with L61Y, Y103A
VL: B1 VL

fold change of affinity [1]: 0.9 fold
B31: H183/L072 VH Y59R (antibody, name in Kabat numbering, V domains shown)
VH: B1 VH with L61Y, Y62R
VL: B1 VL

fold change of affinity [1]: 0 fold
B32: H183/L072 VH Y94I (antibody, name in Kabat numbering, V domains shown)
VH: B1 VH with L61Y, Y100I
VL: B1 VL

ratio of amounts bound (Z=Y/X) [2]: 0.94
B33: GLS3000 F55H (antibody, name in Kabat numbering, V domains shown)
VH: B2 VH
VL: B1 VL with Q24R, A25S, E28S, M32S, F60H, P61S, A94G, S98Q, F101Y
notes: one-arm IgG as m2

fold change of affinity [1]: 0 fold
B34: H183/L072 VH Y94L (antibody, name in Kabat numbering, V domains shown)
VH: B1 VH with L61Y, Y100L
VL: B1 VL

fold change of affinity [1]: 0.8 fold
B35: H183/L072 VH Y59N (antibody, name in Kabat numbering, V domains shown)
VH: B1 VH with L61Y, Y62N
VL: B1 VL

fold change of affinity [1]: 0 fold
B36: H183/L072 VH Y97P (antibody, name in Kabat numbering, V domains shown)
VH: B1 VH with L61Y, Y103P
VL: B1 VL

fold change of affinity [1]: 0 fold
B37: H183/L072 VH Y94A (antibody, name in Kabat numbering, V domains shown)
VH: B1 VH with L61Y, Y100A
VL: B1 VL

fold change of affinity [1]: 0 fold
B39: H183/L072 VH Y97L (antibody, name in Kabat numbering, V domains shown)
VH: B1 VH with L61Y, Y103L
VL: B1 VL

fold change of affinity [1]: 0.3 fold
B42: H183/L072 VH Y59P (antibody, name in Kabat numbering, V domains shown)
VH: B1 VH with L61Y, Y62P
VL: B1 VL
